Data as given in paper PMC6281582.

Molecular target: FOXO3a (UniProt O43524)
Assay: IP of FOXO3a, anti-Flag blot for SirT6
Settings: reference: WT-SirT6; sites S338

SirT6 (from UniProt Q8N6T7) S338A
binding against the reference: lost
